Where two headings read alike, the source gives them in different places.
Columns and labels:
human CDH6 on cells [1] = biological target: T1, human CDH6 on cells (human, UniProt P55285 54-790); experiment: FACS on OVCAR8-CDH6+ cells, histogram table
T1 sequence: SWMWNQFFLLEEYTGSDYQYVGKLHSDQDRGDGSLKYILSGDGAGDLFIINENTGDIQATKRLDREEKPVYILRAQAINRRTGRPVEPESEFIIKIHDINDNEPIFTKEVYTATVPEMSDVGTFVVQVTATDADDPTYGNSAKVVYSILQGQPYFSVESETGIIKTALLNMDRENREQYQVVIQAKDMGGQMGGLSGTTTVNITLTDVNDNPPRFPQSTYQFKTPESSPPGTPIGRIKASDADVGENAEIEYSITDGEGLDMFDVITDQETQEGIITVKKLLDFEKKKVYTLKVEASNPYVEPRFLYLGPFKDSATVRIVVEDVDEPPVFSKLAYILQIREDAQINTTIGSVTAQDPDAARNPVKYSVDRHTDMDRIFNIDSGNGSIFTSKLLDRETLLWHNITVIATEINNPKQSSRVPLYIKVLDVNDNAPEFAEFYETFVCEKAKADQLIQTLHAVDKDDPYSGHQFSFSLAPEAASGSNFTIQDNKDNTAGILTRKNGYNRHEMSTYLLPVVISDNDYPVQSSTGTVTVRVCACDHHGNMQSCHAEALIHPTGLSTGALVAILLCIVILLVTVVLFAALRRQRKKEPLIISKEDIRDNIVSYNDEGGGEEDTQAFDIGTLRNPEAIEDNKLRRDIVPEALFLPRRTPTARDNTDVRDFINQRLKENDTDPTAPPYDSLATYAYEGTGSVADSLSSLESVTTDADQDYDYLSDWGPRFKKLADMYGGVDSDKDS

human CDH6 on cells [2] = biological target: T1, human CDH6 on cells; experiment: FACS on OVCAR3 cells, histogram table
hCDH6aa54-615 APPavi [3] = biological target: T2, hCDH6aa54-615 APPavi (human, UniProt P55285 54-615); experiment: SPR binning
T2 sequence: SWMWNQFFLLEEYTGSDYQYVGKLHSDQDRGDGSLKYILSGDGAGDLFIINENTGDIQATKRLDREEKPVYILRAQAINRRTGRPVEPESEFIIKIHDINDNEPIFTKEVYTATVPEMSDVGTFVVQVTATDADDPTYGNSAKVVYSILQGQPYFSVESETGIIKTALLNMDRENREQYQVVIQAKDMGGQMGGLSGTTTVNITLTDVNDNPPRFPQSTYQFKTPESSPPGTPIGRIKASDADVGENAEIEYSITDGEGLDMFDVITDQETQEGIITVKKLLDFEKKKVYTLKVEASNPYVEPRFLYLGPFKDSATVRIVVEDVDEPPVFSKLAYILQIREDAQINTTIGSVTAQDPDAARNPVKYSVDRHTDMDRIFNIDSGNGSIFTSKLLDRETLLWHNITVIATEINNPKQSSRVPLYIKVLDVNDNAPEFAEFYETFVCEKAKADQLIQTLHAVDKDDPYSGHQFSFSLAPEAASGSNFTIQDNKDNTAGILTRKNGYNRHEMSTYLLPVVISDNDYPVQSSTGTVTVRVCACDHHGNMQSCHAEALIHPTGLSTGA

hCDH6aa54-615 APPavi [4] = biological target: T2, hCDH6aa54-615 APPavi; experiment: SPR binning; remark: listed apart in the source
hCDH6aa54-615 APPavi [5] = biological target: T2, hCDH6aa54-615 APPavi; experiment: SPR binning; remark: listed apart in the source
hCDH6aa54-615 APPavi [6] = biological target: T2, hCDH6aa54-615 APPavi; experiment: SPR binning; remark: listed apart in the source
hCDH6aa54-615 APPavi [7] = biological target: T2, hCDH6aa54-615 APPavi; experiment: SPR binning; remark: listed apart in the source
hCDH6aa54-615 APPavi [8] = biological target: T2, hCDH6aa54-615 APPavi; experiment: SPR binning; remark: listed apart in the source
hCDH6aa54-615 APPavi [9] = biological target: T2, hCDH6aa54-615 APPavi; experiment: SPR binning; remark: listed apart in the source

Molecule control IgG-sulfo-SPDB-DM4 (antibody) has a Geom. Mean Fluorescence (human CDH6 on cells [1]) of 56.5 and a Geom. Mean Fluorescence (human CDH6 on cells [2]) of 60.4.

B1: NOV0719 (antibody, human IgG1, kappa, V domains shown)
VH: QVQLLESGGGLVQPGGSLRLSCAASGFTFSSHWVHWVRQAPGKGLEWVSVISYMGSSTYYADSVKGRFTISRDNSKNTLYLQMNSLRAEDTAVYYCARGSYDMAFDVWGQGTLVTVSS
VL: DIQMTQSPSSLSASVGDRVTITCRASQSIVSYLNWYQQKPGKAPKLLIYDASSLQSGVPSRFSGSGSGTDFTLTISSLQPEDFATYYCQQSGSHSITFGQGTKVEIKR
With B1 the “response of secondary antibody on primary antibody-CDH6 complex” value (shortened to “response of secondary antibody”) (hCDH6aa54-615 APPavi [3]) was -2.36, the “response of secondary antibody” value (hCDH6aa54-615 APPavi [4]) was 16.1 and the “response of secondary antibody” value (hCDH6aa54-615 APPavi [5]) was 20.7. For the same molecule, the “response of secondary antibody” value (hCDH6aa54-615 APPavi [6]) was 13.5, the “response of secondary antibody” value (hCDH6aa54-615 APPavi [7]) was 46.9 and the “response of secondary antibody” value (hCDH6aa54-615 APPavi [8]) was 11.1. The “response of secondary antibody” value (hCDH6aa54-615 APPavi [9]) was 25.4.

B2: NOV1132 (antibody, human IgG1, lambda, V domains shown)
VH: QVQLQQSGPGLVKPSQTLSLTCAISGDSVSSQSAGWNWIRQSPSRGLEWLGRIYYRSKWYNDYAVSVKSRITINPDTSKNQFSLQLNSVTPEDTAVYYCAREKYTVSFYDFFDYWGQGTLVTVSS
VL: SYELTQPLSVSVALGQTARITCSGDNIGSMTAHWYQQKPGQAPVLVIYDKNERPSGIPERFSGSNSGNTATLTISRAQAGDEADYYCQSWDDSYTSVVFGGGTKLTVLG
With B2 the “response of secondary antibody” value (hCDH6aa54-615 APPavi [3]) was 33.6, the “response of secondary antibody” value (hCDH6aa54-615 APPavi [4]) was 17.8 and the “response of secondary antibody” value (hCDH6aa54-615 APPavi [5]) was 1.08. The “response of secondary antibody” value (hCDH6aa54-615 APPavi [6]) was 17.9, the “response of secondary antibody” value (hCDH6aa54-615 APPavi [7]) was 39.3 and the “response of secondary antibody” value (hCDH6aa54-615 APPavi [8]) was 14.3. The “response of secondary antibody” value (hCDH6aa54-615 APPavi [9]) was 23.7.

Reference: patent US20170224836A1 (Novartis, published 2017)
